Reference: patent publication US20130231277A1 (NEW YORK UNIVERSITY, published 2013)

Target: T1, ectodomain of murine αKlotho (A35 to K982 of SEQ ID NO: 231) with a C-terminal FLAG tag (murine, UniProt O35082 35-982)
T1 construct: Purified from culture media of a HEK293 cell line; also called αKlotho ectodomain; not shown: C-terminal FLAG tag
T1 sequence: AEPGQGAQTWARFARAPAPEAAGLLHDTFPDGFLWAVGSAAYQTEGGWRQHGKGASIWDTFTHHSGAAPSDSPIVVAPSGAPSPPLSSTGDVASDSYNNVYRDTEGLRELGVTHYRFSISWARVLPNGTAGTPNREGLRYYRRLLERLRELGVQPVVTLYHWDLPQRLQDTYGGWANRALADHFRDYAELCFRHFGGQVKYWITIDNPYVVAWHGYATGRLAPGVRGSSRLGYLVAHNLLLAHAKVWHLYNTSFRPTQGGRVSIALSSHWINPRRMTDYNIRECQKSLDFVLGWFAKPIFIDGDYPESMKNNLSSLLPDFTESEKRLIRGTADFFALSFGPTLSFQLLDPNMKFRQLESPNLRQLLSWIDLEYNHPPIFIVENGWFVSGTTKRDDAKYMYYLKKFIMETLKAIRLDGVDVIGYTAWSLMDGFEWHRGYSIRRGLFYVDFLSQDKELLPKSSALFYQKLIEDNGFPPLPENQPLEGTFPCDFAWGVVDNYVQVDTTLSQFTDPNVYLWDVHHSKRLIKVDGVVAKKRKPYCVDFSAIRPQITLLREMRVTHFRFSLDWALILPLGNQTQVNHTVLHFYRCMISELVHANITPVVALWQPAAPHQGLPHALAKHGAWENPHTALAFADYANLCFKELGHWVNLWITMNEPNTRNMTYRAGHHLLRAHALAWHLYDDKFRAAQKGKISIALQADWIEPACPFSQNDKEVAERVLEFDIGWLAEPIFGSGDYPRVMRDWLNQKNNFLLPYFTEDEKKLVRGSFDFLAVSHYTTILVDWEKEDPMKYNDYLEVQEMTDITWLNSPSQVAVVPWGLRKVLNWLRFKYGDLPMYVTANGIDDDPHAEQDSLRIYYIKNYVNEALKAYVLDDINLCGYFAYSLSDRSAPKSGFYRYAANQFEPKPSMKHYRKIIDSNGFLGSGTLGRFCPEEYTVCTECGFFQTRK
Test: SPR; FGF21 immobilized, increasing concentrations of αKlotho ectodomain passed over the chip (FIG. 4E)
Procedure: SPR experiments were performed on a Biacore 2000 instrument (Biacore AB), and all the protein-protein and protein-peptide interactions were studied at 25° C. in HBS-EP buffer (10 mM HEPES-NaOH, pH 7.4, 150 mM NaCl, 3 mM EDTA, 0.005% (v/v) polysorbate 20). Proteins were immobilized by amine coupling on flow channels of research grade CM5 chips (Biacore AB). Proteins were injected over a CM5 chip at a flow rate of 50 μl min⁻¹, and at the end of each protein injection (180 s), HBS-EP buffer (50 μl min⁻¹) was flowed over the chip to monitor dissociation for 180 s. In experiments where βKlotho binding to FGFR was analyzed, the chip surface was then regenerated by injecting 50 μl of 2.0 M NaCl in 10 mM sodium/potassium phosphate, pH 6.5. In experiments where α/βKlotho binding to FGF19/21/23 or binding of the FGFR1c-βKlotho complex to FGF21 was studied, 2.0 M NaCl in 10 mM sodium acetate, pH 4.5 was used for chip regeneration. To control for nonspecific binding in experiments where the ectodomain of αKlotho or βKlotho was immobilized on the chip, β-glucuronidase was coupled to the control flow channel of the chip (˜43-68 fmol/mm²). […] For each protein injection over a chip onto which αKlotho or βKlotho had been immobilized, the nonspecific responses from the β-glucuronidase control flow channel were subtracted from the responses recorded for the α/βKlotho flow channel.

B1: human FGF21, secreted bioactive form (H29 to S209 of SEQ ID NO: 100) (ligand)
chain: HPIPDSSPLLQFGGQVRQRYLYTDDAQQTEAHLEIREDGTVGGAADQSPESLLQLKALKPGVIQILGVKTSRFLCQRPDGALYGSLHFDPEACSFRELLLEDGYNVYQSEAHGLPLHLPGNKSPHRDPAPRGPARFLPLPGLPPALPEPPGILAPQPPDVGSSDPLSMVGPSQGRSPSYAS
notes: Used both immobilized on the SPR chip and in solution; also called wild-type FGF21; native FGF21
- binding result: no binding
